Results: article PMC7195491
Residue numbers refer to the chain shown, from its start. Names and notes keep the numbering of the source. Blank lines part the entries; values can stand above or below the binder they belong to.

Experiments:
Assay in all cases: SPR
[1] = molecular target: T1, DIP-γ (Dpr Interacting Protein gamma), extracellular region, Q9VAR6; conditions: chain shown with the change; 25 °C; 10 mM Tris-HCl, pH 7.2, 150 mM NaCl, 1 mM EDTA, 1 mg mL−1 BSA, 0.01% (v/v) Tween-20; analyte 81 to 0.012 μM, three-fold dilution series
T1 chain: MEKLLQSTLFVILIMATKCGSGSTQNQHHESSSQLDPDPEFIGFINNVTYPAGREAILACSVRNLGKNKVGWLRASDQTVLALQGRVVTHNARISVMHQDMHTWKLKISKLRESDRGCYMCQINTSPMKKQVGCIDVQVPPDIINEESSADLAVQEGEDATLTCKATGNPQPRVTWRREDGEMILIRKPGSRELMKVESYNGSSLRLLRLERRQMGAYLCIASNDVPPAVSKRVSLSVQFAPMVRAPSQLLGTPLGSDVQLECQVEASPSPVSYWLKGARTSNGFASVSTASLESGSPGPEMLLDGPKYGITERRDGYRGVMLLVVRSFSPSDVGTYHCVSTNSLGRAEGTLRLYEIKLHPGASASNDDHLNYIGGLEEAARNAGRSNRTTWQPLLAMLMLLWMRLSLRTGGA

[2] = molecular target: T2, DIP-α (Dpr Interacting Protein alpha), extracellular region, Q9W4R3; conditions: chain shown with the change; 25 °C; 10 mM Tris-HCl, pH 7.2, 150 mM NaCl, 1 mM EDTA, 1 mg mL−1 BSA, 0.01% (v/v) Tween-20; analyte 81 to 0.012 μM, three-fold dilution series; parent: 0.0 kcal/mol
T2 chain: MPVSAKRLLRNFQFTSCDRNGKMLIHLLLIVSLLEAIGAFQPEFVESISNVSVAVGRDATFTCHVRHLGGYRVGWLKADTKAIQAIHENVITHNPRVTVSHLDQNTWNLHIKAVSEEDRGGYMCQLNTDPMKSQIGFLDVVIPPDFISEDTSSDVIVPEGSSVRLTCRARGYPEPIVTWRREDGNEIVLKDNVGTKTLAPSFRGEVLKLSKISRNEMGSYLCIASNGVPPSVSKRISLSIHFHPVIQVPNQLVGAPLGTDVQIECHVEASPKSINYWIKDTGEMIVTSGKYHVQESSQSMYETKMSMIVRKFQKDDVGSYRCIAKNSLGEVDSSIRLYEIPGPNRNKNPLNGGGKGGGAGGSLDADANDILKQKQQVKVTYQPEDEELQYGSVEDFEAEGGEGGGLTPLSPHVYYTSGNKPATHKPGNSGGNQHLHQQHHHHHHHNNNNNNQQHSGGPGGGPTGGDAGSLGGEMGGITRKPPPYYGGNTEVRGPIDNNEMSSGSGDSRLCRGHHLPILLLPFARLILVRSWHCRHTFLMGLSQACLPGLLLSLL

[3] = molecular target: T3, Dpr11 (Defective proboscis extension response 11), extracellular region, Q8MRE6; conditions: chain shown with the change; 25 °C; 10 mM Tris-HCl, pH 7.2, 150 mM NaCl, 1 mM EDTA, 1 mg mL−1 BSA, 0.01% (v/v) Tween-20; analyte 81 to 0.012 μM, three-fold dilution series
T3 chain: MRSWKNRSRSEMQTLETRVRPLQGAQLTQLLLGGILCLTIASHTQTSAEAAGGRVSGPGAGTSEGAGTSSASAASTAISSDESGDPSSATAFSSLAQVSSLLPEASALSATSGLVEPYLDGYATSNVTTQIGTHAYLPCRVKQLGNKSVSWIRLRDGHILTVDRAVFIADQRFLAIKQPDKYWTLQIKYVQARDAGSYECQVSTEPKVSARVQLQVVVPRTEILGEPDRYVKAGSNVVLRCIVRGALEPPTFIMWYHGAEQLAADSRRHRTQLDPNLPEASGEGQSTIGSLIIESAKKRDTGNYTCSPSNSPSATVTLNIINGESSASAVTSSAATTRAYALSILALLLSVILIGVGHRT

ddG [1]: 0.6 kcal/mol
B1: Dpr11 (Defective proboscis extension response 11), extracellular region, Q8MRE6 K207V (protein)
chain: T3 chain with K207V

ddG [2]: < -2 kcal/mol
B2: Dpr11 (Defective proboscis extension response 11), extracellular region, Q8MRE6 K207V; E205Q; G157L (protein)
chain: T3 chain with G157L, E205Q, K207V

ddG [1]: 1.7 kcal/mol
B3: Dpr11 (Defective proboscis extension response 11), extracellular region, Q8MRE6 E205Q; K207V (protein)
chain: T3 chain with E205Q, K207V

ddG [3]: 0.9 kcal/mol
B4: DIP-γ (Dpr Interacting Protein gamma), extracellular region, Q9VAR6 D77T (protein)
chain: T1 chain with D77T
